According to FireProtDB (doi:10.1002/prot.20496):
Values joined by “and” are separate entries in the source; they are usually repeats but may differ in a detail not shown here. Identical values can stand only once.

B1: Alpha-lactalbumin, P00712 (parent)
chain: MMSFVSLLLVGILFHATQAEQLTKCEVFQKLKDLKDYGGVSLPEWVCTAFHTSGYDTQAIVQNNDSTEYGLFQINNKIWCKDDQNPHSRNICNISCDKFLDDDLTDDIVCAKKILDKVGINYWLAHKALCSEKLDQWLCEKL

Variants of: B1
Conditions: Capra hircus, pH 7.5, Thermal, Tris-HCl 10 mM, CaCl2 2 mM, structure 1HFY, whole UniProt chain shown

Question: With MMSFVSLLLVGILFHATQAEQLTKCEVFQKLKDLKDYGGVSLPEWVCTAFHTSGYDTQAIVQNNDSTEYGLFQINNKIFCKDDQNPHSRNICNISCDKFLDDDLTDDIVCAKKILDKVGINYWLAHKALCSEKLDQWLCEKL as the variant, how does the Tm (DSC) read?
Answer: The Tm was 67.9 °C.

Question: What about the “change of melting temperature, mutant - wild type (higher = more stable)” value (shortened to “change of melting temperature, mutant”) (DSC) of the same variant?
Answer: Its value is -3.2 °C.

Question: What about the Tm (Fluorescence) of the same variant?
Answer: Its Tm is 69.2 °C.

Question: What about the “change of melting temperature, mutant” value (Fluorescence) of the same variant?
Answer: The value was -2 °C.

Question: With MMSFVSLLLVGILFHATQAEQLTKCEVFQKLKDLKDYGGVSLPEWVCTAFHTSGYDTQAIVQNNDSTEYGLFQINNKIFCKDDQNPHSRNICNISCDKFLDDDLTDDIVCAKKILDKVGINYWLAHKALCSEKLDQFLCEKL as the variant, how does the Tm (DSC) read?
Answer: The Tm was 68.1 °C.

Question: And the “change of melting temperature, mutant” value (DSC)?
Answer: Its value is -3 °C.

Question: What about the Tm (Fluorescence) of the same variant?
Answer: The Tm was 71 °C and 68 °C.

Question: And the “change of melting temperature, mutant” value (Fluorescence)?
Answer: The value was -0.2 °C and -1.9 °C.

Question: With MMSFVSLLLVGILFHATQAEQLTKCEVFQKLKDLKDYGGVSLPEWVCTAFHTSGYDTQAIVQNNDSTEYGLFQINNKIWCKDDQNPHSRNICNISCDKFLDDDLTDDIVCAKKILDKVGINYWLAHKALCSEKLDQFLCEKL as the variant, how does the Tm (DSC) read?
Answer: Its Tm is 71.5 °C.

Question: What about the “change of melting temperature, mutant” value (DSC) of the same variant?
Answer: The value was 0.4 °C.
